Patent US20100278818A1

How the values were obtained:
[1] = target: Tn antigen (GalNAc alpha-O-Ser/Thr of a polypeptide chain) at the surface of human tumor cells; assay: flow cytometry, biotinylated IVIG control and SA-PE on EpCam+CD45- ovarian cancer cells from patient ascitis
[2] = target: Tn antigen (GalNAc alpha-O-Ser/Thr of a polypeptide chain) at the surface of human tumor cells; assay: flow cytometry MFI against antibody concentration on Jurkat cells; design: unit not given here
[3] = target: Tn antigen (GalNAc alpha-O-Ser/Thr of a polypeptide chain) at the surface of human tumor cells; assay: immunohistochemistry, biotinylated chi-83D4 and avidin-HRP on 3 primary ovarian serous adenocarcinomas
[4] = target: Tn antigen (GalNAc alpha-O-Ser/Thr of a polypeptide chain) at the surface of human tumor cells; assay: flow cytometry MFI against antibody concentration on Shin3 cells; design: unit not given here
[5] = target: Tn antigen (GalNAc alpha-O-Ser/Thr of a polypeptide chain) at the surface of human tumor cells; assay: flow cytometry, biotinylated chi-83D4 preincubated with GalNac (1 M), SA-PE, EpCam+CD45- ovarian cancer cells from patient ascitis
[6] = target: Tn antigen (GalNAc alpha-O-Ser/Thr of a polypeptide chain) at the surface of human tumor cells; assay: flow cytometry, biotinylated chi-83D4 and SA-PE on EpCam+CD45- ovarian cancer cells from patient ascitis (one representative patient)
[7] = target: Tn antigen (GalNAc alpha-O-Ser/Thr of a polypeptide chain) at the plasma membrane of murine tumor cell lines; assay: flow cytometry MFI against antibody concentration on TA3HA cells

Molecule: Intravenous immunoglobulin (Tegeline, IVIG) (antibody)
- MFI [1]: 1810

B1: chimeric anti-Tn (chi-83D4) mAb (antibody, human IgG1, kappa, V domains shown)
VH: QVQLQQSDAELVKPGASVKISCKASGYTFTDHAIHWVKQKPEQGLEWIGYFSPGNGDIKYNEKFKGKATLTADKSSSTAYMQLNSLTSEDSAVYFCKRSYGNYDYWGQGTTLTVSS
VL: DILLTQSPAILSVSPGERVSFSCRASQNIGTSIHWYQQRTNGSPRLLIKYASESVSGIPSRFSGSGSGTDFTLSINSVESEDIADYYCQHTNSWPTTFGGGTKLEIKR
- saturating concentration [2]: 70
- percent of tumor cells labeled [3]: 70 to 80%
- saturating concentration [4]: 20
- MFI [5]: 1830
- MFI [6]: 4490
- saturating concentration [7]: 50 mg/mL
